B1: Azoarcus group I ribozyme (parent)
chain: GUGCCUUGCGCCGGGAAACCACGCAAGGGAUGGUGUCAAAUUCGGCGAAACCUAAGCGCCCGCCCGGGCGUAUGGCAACGCCGAGCCAAGCUUCGGCGCCUGCGCCGAUGAAGGUGUAGAGACUAGACGGCACCCACCUAAGGCAAACGCUAUGGUGAAGGCAUAGUCCAGGGAGUGGCGAAAGUCACACAAACCGG

Variants of: B1
Test: reverse-splicing fitness (ratio to wild type); higher = more active; in vitro selection; Mg2+ level not given
In short: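 An in vitro group I ribozyme library with randomized positions was T7-transcribed and gel-purified. In triplicate, 10 pmol RNA in EPPS pH 7.5 was reacted with 50 pmoles of a 30-nt RNA substrate for 1 h at 37 °C across several added MgCl2 levels (1–48 mM), then stopped with EDTA. Products were reverse transcribed from a substrate-complementary primer, PCR-amplified and sequenced (HiSeq 4000). Fitness is a variant's read proportion after selection over that before, normalised to wild type.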

Q: For GUGCCUUGCGCCGGGAAACCACGCAAGGGAUGGUGUCAAAUUCGGCGAAACCUAAGCGCCCGCCCGGGCGUAUGGCAACGCGGAGCCAAGCUUCGGCGCCUGCGCCGAUGUAGGUGUAGUGACUAGACGGCACCCACCUAAGGCCAACGUUAUGGUGAAGGCAUAGUCGAGGGAGAGGCGAAAGUCACACAAACCGG [C82G A111U A120U A145C C150U C169G U176A], which reverse-splicing fitness is on record?
A: 0.00298

Q: With GUGCCUUGCGCCGGGAAACCACGCAAGGGAUGGUGUCAAAUUCGGCGAAACCUAAGCGCCCGCCCGGGCGUAUGGCAACGCGGAGCCAAGCUUCGGCGCCUGCGCCGAUGUAGGUGUAGUGACUAGACGGCACCCACCUAAGGCCAACGUUAUGGUGAAGGCAUAGUCGAGGGAGGGGCGAAAGUCACACAAACCGG [C82G A111U A120U A145C C150U C169G U176G] as the variant, how does the reverse-splicing fitness read?
A: 0.0021

Q: Which reverse-splicing fitness does the source give for GUGCCUUGCGCCGGGAAACCACGCAAGGGAUGGUGUCAAAUUCGGCGAAACCUAAGCGCCCGCCCGGGCGUAUGGCAACGCGGAGCCAAGCUUCGGCGCCUGCGCCGAUGUAGGUGUAGUGACUAGACGGCACCCACCUAAGGCCAACGUUAUGGUGAAGGCAUAGUCCAGGGAGUGGCGAAAGUCACACAAACCGG [C82G A111U A120U A145C C150U] here?
A: 0.0116

Q: With GUGCCUUGCGCCGGGAAACCACGCAAGGGAUGGUGUCAAAUUCGGCGAAACCUAAGCGCCCGCCCGGGCGUAUGGCAACGCGGAGCCAAGCUUCGGCGCCUGCGCCGAUGUAGGUGUAGUGACUAGACGGCACCCACCUAAGGCCAACGUUAUGGUGAAGGCAUAGUCCAGGGAGGGGCGAAAGUCACACAAACCGG [C82G A111U A120U A145C C150U U176G] as the variant, how does the reverse-splicing fitness read?
A: 0.00297

Q: For GUGCCUUGCGCCGGGAAACCACGCAAGGGAUGGUGUCAAAUUCGGCGAAACCUAAGCGCCCGCCCGGGCGUAUGGCAACGCGGAGCCAAGCUUCGGCGCCUGCGCCGAUGUAGGUGUAGUGACUAGACGGCACCCACCUAAGGCCAACGUUAUGGUGAAGGCAUAGUCCAGGGAGCGGCGAAAGUCACACAAACCGG [C82G A111U A120U A145C C150U U176C], which reverse-splicing fitness is on record?
A: 0.00545

Q: For GUGCCUUGCGCCGGGAAACCACGCAAGGGAUGGUGUCAAAUUCGGCGAAACCUAAGCGCCCGCCCGGGCGUAUGGCAACGCGGAGCCAAGCUUCGGCGCCUGCGCCGAUGUAGGUGUAGUGACUAGACGGCACCCACCUAAGGCCAACGUUAUGGUGAAGGCAUAGUCCAGGGAGAGGCGAAAGUCACACAAACCGG [C82G A111U A120U A145C C150U U176A], which reverse-splicing fitness is on record?
A: 0.00477

Q: With GUGCCUUGCGCCGGGAAACCACGCAAGGGAUGGUGUCAAAUUCGGCGAAACCUAAGCGCCCGCCCGGGCGUAUGGCAACGCGGAGCCAAGCUUCGGCGCCUGCGCCGAUGUAGGUGUAGUGACUAGACGGCACCCACCUAAGGCCAACGUUAUGGUGAAGGCAUAGUCAAGGGAGGGGCGAAAGUCACACAAACCGG [C82G A111U A120U A145C C150U C169A U176G] as the variant, how does the reverse-splicing fitness read?
A: 0.00176

Q: For GUGCCUUGCGCCGGGAAACCACGCAAGGGAUGGUGUCAAAUUCGGCGAAACCUAAGCGCCCGCCCGGGCGUAUGGCAACGCGGAGCCAAGCUUCGGCGCCUGCGCCGAUGUAGGUGUAGUGACUAGACGGCACCCACCUAAGGCCAACGUUAUGGUGAAGGCAUAGUCAAGGGAGCGGCGAAAGUCACACAAACCGG [C82G A111U A120U A145C C150U C169A U176C], which reverse-splicing fitness is on record?
A: 0.0022

Q: For GUGCCUUGCGCCGGGAAACCACGCAAGGGAUGGUGUCAAAUUCGGCGAAACCUAAGCGCCCGCCCGGGCGUAUGGCAACGCGGAGCCAAGCUUCGGCGCCUGCGCCGAUGUAGGUGUAGUGACUAGACGGCACCCACCUAAGGCCAACGUUAUGGUGAAGGCAUAGUCAAGGGAGAGGCGAAAGUCACACAAACCGG [C82G A111U A120U A145C C150U C169A U176A], which reverse-splicing fitness is on record?
A: 0.00212

Q: With GUGCCUUGCGCCGGGAAACCACGCAAGGGAUGGUGUCAAAUUCGGCGAAACCUAAGCGCCCGCCCGGGCGUAUGGCAACGCGGAGCCAAGCUUCGGCGCCUGCGCCGAUGUAGGUGUAGUGACUAGACGGCACCCACCUAAGGCCAACGUUAUGGUGAAGGCAUAGUCUAGGGAGGGGCGAAAGUCACACAAACCGG [C82G A111U A120U A145C C150U C169U U176G] as the variant, how does the reverse-splicing fitness read?
A: 0.00228

Q: For GUGCCUUGCGCCGGGAAACCACGCAAGGGAUGGUGUCAAAUUCGGCGAAACCUAAGCGCCCGCCCGGGCGUAUGGCAACGCGGAGCCAAGCUUCGGCGCCUGCGCCGAUGUAGGUGUAGUGACUAGACGGCACCCACCUAAGGCCAACGUUAUGGUGAAGGCAUAGUCUAGGGAGAGGCGAAAGUCACACAAACCGG [C82G A111U A120U A145C C150U C169U U176A], which reverse-splicing fitness is on record?
A: 0.00361

Q: For GUGCCUUGCGCCGGGAAACCACGCAAGGGAUGGUGUCAAAUUCGGCGAAACCUAAGCGCCCGCCCGGGCGUAUGGCAACGCGGAGCCAAGCUUCGGCGCCUGCGCCGAUGUAGGUGUAGUGACUAGACGGCACCCACCUAAGGCCAACGUUAUGGUGAAGGCAUAGUCUAGGGAGCGGCGAAAGUCACACAAACCGG [C82G A111U A120U A145C C150U C169U U176C], which reverse-splicing fitness is on record?
A: 0.00208

Q: Which reverse-splicing fitness does the source give for GUGCCUUGCGCCGGGAAACCACGCAAGGGAUGGUGUCAAAUUCGGCGAAACCUAAGCGCCCGCCCGGGCGUAUGGCAACGCGGAGCCAAGCUUCGGCGCCUGCGCCGAUGUAGGUGUAGUGACUAGACGGCACCCACCUAAGGCCAACGGUAUGGUGAAGGCAUAGUCCAGGGAGGGGCGAAAGUCACACAAACCGG [C82G A111U A120U A145C C150G U176G] here?
A: 0.00236

Q: Which reverse-splicing fitness does the source give for GUGCCUUGCGCCGGGAAACCACGCAAGGGAUGGUGUCAAAUUCGGCGAAACCUAAGCGCCCGCCCGGGCGUAUGGCAACGCGGAGCCAAGCUUCGGCGCCUGCGCCGAUGUAGGUGUAGUGACUAGACGGCACCCACCUAAGGCCAACGGUAUGGUGAAGGCAUAGUCCAGGGAGCGGCGAAAGUCACACAAACCGG [C82G A111U A120U A145C C150G U176C] here?
A: 0.00425

Q: For GUGCCUUGCGCCGGGAAACCACGCAAGGGAUGGUGUCAAAUUCGGCGAAACCUAAGCGCCCGCCCGGGCGUAUGGCAACGCGGAGCCAAGCUUCGGCGCCUGCGCCGAUGUAGGUGUAGUGACUAGACGGCACCCACCUAAGGCCAACGGUAUGGUGAAGGCAUAGUCCAGGGAGAGGCGAAAGUCACACAAACCGG [C82G A111U A120U A145C C150G U176A], which reverse-splicing fitness is on record?
A: 0.00296

Source: the RNAGym collection of RNA variant scans (doi:10.1093/molbev/msab373)
